The record followed here is publication PMC12399007.

In experiment [1] the target is F-actin (rabbit skeletal muscle actin, polymerized) (rabbit) (UniProt P68135). In words: co-sedimentation; high-speed centrifugation (HSC, 1 h, 40,000 rpm, 20 °C); 3.0 µM F-actin pre-incubated with 0.3 µM fascin for 20 min, titrated with Tpm2 isoforms 0-3.0 µM; 5 mM Tris, 100 mM NaCl, 2 mM MgCl2, 1 mM DTT, pH 7.5; Hill fit, apparent Kapp; fascin band in the pellets also quantified.

For experiment [2] the target is unchanged. In words: co-sedimentation; high-speed centrifugation (HSC); 3.0 µM F-actin, alone or pre-incubated 15 min with 2.0 µM Tpm2 isoform, incubated with fascin 0-1.1 µM for 1 h at RT; 5 mM Tris-HCl, 100 mM NaCl, 2 mM MgCl2, 1 mM DTT, pH 7.5; Hill fit, apparent Kapp.
For experiment [3], the target named is F-actin saturated with Tpm2.1 (rabbit | human) (UniProt P68135). The description is as above.

Consider “Tpm2.4, recombinant N-terminally acetylated human tropomyosin isoform encoded by TPM2 (natural protein)”, for which the percent reduction of fascin bound to F-actin in experiment [1] amounted to 30%. As for “recombinant mouse fascin-1 with GPLGS N-terminal extension (GST tag cleaved) (natural protein)”, the Ka turned out to be 1.15e+07 M⁻¹ in experiment [2] and 8e+06 M⁻¹ in experiment [3].
